Paper doi:10.1101/2025.02.07.637128 (bioRxiv, 2025)
Where “and” joins values, the source holds several entries; their conditions need not be identical. Equal entries are not always repeated.

B1: Pneumolysin (PLY) toxin (natural protein)
chain: MANKAVNDFILAMNYDKKKLLTHQGESIENRFIKEGNQLPDEFVVIERKKRSLSTNTSDISVTATNDSRLYPGALLVVDETLLENNPTLLAVDRAPMTYSIDLPGLASSDSFLQVEDPSNSSVRGAVNDLLAKWHQDYGQVNNVPARMQYEKITAHSMEQLKVKFGSDFEKTGNSLDIDFNSVHSGEKQIQIVNFKQIYYTVSVDAVKNPGDVFQDTVTVEDLKQRGISAERPLVYISSVAYGRQVYLKLETTSKSDEVEAAFEALIKGVKVAPQTEWKQILDNTEVKAVILGGDPSSGARVVTGKVDMVEDLIQEGSRFTADHPGLPISYTTSFLRDNVVATFQNSTDYVETKVTAYRNGDLLLDHSGAYVAQYYITWDELSYDHQGKEVLTPKAWDRNGQDLTAHFTTSIPLKGNVRNLSVKIRECTGLAWEWWRTVYEKTDLPLVRKRTISIWGTTLYPQVEDKVEND

Legend:
Concanavalin A = assay: resistive pulse sensing with PLY nanopores
[1] = target: the molecule itself

Row | Molecule | stoichiometry N (Concanavalin A) | stoichiometry N [1]
1 | Concanavalin A (natural protein) | 2 and 4 | –
2 | B1 | – | 35 ± 2 monomers
